One protein from paper PMC12256852, “Reversible tuning of membrane sterol levels by cyclodextrin in a dialysis setting” (Biophysical Journal, 2025) can be followed below.

The data set concerns the molecule itself. Put plainly: FRET or BRET; same proteoliposomes after cholesterol delivery by dialysis against cholesterol-loaded mβCD (up to 24 h); protein-to-lipid ratio 1:16,000; 30°C; relative FRET efficiency.

B1: MBP-Ire1^(P501-K570, C552S) with a C-terminal cysteine (domain or fragment, Saccharomyces cerevisiae)
chain: PEDLEAYRKKIHEQISRELDEKNQNSLLLKFGSLVYRIIETGVFLLLFLIFSAILQRFKILPPLYVLLSKC
modifications: C-terminal cysteine modified by maleimide chemistry with ATTO514 (FRET donor), ATTO594 (FRET acceptor) or NEM (unlabeled)
notes: Ire1 from Saccharomyces cerevisiae, residues P501 to K570: the entire transmembrane region with the amphipathic helix and the short transmembrane helix; endogenous cysteine 552 replaced by serine; single cysteine introduced at the C-terminal end of the construct for labeling; Donor-labeled (ATTO514) and acceptor-labeled (ATTO594) copies of the same construct were co-reconstituted; also called …
With B1, the binding result is reported as “binds”.
